From PMC6667474 (Scientific Reports, 2019)

Target: T1, Myc-IQGAP3 (human, UniProt Q86VI3 2-1631)
T1 construct: human IQGAP3 from a commercial cDNA (Dharmacon); full length IQGAP3 (corresponding to amino acids 2-1631) in pcDNA3; also called overexpressed IQGAP3; IQ3; source: HEK293, transfected, in lysate
Assay: co-IP; HEK293 cells transfected with Myc-IQGAP3 alone or with Myc-Cdc42 (wt, Q61L or T17N); anti-IQGAP3 rabbit polyclonal antibody and Protein A-Sepharose 4 h at 4 C; lysis buffer 150 mM NaCl, 1% Triton X-100, 200 mM Tris-HCl pH 7.4; Western blot
Conditions: partners not purified

T1 sequence (Q86VI3 2-1631): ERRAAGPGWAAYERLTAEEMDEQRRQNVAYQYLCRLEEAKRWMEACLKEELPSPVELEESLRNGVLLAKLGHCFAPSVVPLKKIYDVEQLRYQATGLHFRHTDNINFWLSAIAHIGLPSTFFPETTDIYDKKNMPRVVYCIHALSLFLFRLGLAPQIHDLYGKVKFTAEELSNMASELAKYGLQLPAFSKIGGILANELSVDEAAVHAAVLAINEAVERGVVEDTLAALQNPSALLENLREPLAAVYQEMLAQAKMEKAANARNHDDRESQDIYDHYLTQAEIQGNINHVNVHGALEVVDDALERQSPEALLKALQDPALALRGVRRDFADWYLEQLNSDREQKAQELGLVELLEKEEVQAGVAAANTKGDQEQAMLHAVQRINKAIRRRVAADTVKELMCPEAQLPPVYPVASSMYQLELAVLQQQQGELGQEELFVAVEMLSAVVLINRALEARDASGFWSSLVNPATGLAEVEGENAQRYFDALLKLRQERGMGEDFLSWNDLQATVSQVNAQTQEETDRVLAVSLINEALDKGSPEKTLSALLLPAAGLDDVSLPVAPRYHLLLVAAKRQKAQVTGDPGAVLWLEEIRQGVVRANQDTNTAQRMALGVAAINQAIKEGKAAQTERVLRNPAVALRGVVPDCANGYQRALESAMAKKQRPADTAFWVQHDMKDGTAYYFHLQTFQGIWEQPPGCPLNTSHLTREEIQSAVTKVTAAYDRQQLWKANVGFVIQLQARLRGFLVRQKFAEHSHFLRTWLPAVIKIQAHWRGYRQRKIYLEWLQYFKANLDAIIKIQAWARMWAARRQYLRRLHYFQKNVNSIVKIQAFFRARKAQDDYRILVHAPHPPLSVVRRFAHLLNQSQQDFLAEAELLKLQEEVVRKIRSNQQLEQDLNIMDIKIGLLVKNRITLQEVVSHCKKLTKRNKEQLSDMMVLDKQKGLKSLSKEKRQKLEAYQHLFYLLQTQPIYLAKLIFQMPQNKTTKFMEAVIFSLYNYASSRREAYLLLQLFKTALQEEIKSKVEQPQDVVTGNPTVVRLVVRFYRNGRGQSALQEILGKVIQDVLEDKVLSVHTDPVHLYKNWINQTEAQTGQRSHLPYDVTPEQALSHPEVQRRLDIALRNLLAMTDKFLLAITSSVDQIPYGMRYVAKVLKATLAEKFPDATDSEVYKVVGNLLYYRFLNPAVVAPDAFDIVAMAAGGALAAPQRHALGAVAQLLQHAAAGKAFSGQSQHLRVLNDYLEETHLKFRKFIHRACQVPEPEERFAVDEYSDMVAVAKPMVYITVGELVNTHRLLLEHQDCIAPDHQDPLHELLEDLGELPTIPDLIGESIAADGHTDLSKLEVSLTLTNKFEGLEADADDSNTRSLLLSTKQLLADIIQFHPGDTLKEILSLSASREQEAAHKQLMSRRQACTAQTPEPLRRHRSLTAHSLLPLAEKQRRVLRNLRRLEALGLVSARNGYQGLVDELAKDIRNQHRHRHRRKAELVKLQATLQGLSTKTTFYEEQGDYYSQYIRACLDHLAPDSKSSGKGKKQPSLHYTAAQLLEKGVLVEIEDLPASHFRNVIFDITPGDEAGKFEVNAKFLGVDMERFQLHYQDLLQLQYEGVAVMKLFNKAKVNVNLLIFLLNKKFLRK

B1: Myc-Cdc42 constitutively active (Q61L) (natural protein)
chain: not shown
notes: Cdc42 Q61L cut from pGEX-2T-Cdc42-Q61L and inserted into pcDNA3; also called Myc-Cdc42-Q61L; Cdc42 Q61L; source: HEK293, transfected, in lysate
fold amount co-immunoprecipitated against wild type Cdc42: 1.7 fold
